B1: Limonene-1,2-epoxide hydrolase, Q9ZAG3 (parent)
chain: MTSKIEQPRWASKDSAAGAASTPDEKIVLEFMDALTSNDAAKLIEYFAEDTMYQNMPLPPAYGRDAVEQTLAGLFTVMSIDAVETFHIGSSNGLVYTERVDVLRALPTGKSYNLSILGVFQLTEGKITGWRDYFDLREFEEAVDLPLRG

Variants of B1 are the subject of this data set. The note with it: Rhodococcus erythropolis; pH 7.1; Thermal; Fluorescence; Potassium phosphate 50mM; transition: 2; reversible: no; structure 1NWW; whole UniProt chain shown.

For the variant K110R, the Tm came out at 47.3 °C and the “change of melting temperature, mutant - wild type (higher = more stable)” value (shortened to “change of melting temperature, mutant”) was -1.5 °C.
Consider D50P, for which the Tm is 42.8 °C and the “change of melting temperature, mutant” value was -6 °C.
In the case of I5C E84C, the Tm worked out at 64 °C and the “change of melting temperature, mutant” value came out at 15.2 °C.
The matching figures for I27M: 47 °C and -1.8 °C.
Taken in the same sequence, the figures for M52C G129C were 40 °C and -8.8 °C.
The matching figures for I127F: 46.3 °C and -2.5 °C.
Consider T85L, for which the Tm came to 51.3 °C and the “change of melting temperature, mutant” value turned out to be 2.5 °C.
Taken in the same sequence, the figures for T85V were 55.6 °C and 6.8 °C.
T85P: the midpoint of thermal melting (Tm) was 42.8 °C and the “change of melting temperature, mutant” value was -6 °C.
The matching figures for T85I: 54.6 °C and 5.8 °C.
The matching figures for S12R: 49 °C and 0.2 °C.
Turning to I44C E68C, the Tm is 56 °C and the “change of melting temperature, mutant” value was 7.2 °C.
Taken in the same sequence, the figures for G89C S91C were 66 °C and 17.2 °C.
The matching figures for A72R: 47 °C and -1.8 °C.
P57C D135C: the Tm came to 35 °C and the “change of melting temperature, mutant” value is -13.8 °C.
The matching figures for T76K: 50.3 °C and 1.5 °C.
With D24C L122C, the Tm stood at 36 °C and the “change of melting temperature, mutant” value was -12.8 °C.
For D33R, the Tm came out at 46.5 °C and the “change of melting temperature, mutant” value is -2.3 °C.
Taken in the same sequence, the figures for D33K were 47.3 °C and -1.5 °C.
On to K13P, for which the Tm amounted to 44.8 °C and the “change of melting temperature, mutant” value was -4 °C.
Turning to A105C V143C, the Tm worked out at 46.5 °C and the “change of melting temperature, mutant” value is -2.3 °C.
In the case of L122F, the Tm turned out to be 41.3 °C and the “change of melting temperature, mutant” value was -7.5 °C.
Taken in the same sequence, the figures for A66P were 49.6 °C and 0.8 °C.
Taken in the same sequence, the figures for Q69R were 49.1 °C and 0.3 °C.
Taken in the same sequence, the figures for K4C A82C were 59 °C and 10.2 °C.
With N92R, the Tm came to 50.6 °C and the “change of melting temperature, mutant” value turned out to be 1.8 °C.
Taken in the same sequence, the figures for N92K were 56.1 °C and 7.3 °C.
For E124D, the Tm was determined as 50.1 °C and the “change of melting temperature, mutant” value was determined as 1.3 °C.
The matching figures for E124R: 46 °C and -2.8 °C.
Taken in the same sequence, the figures for E124K were 47.5 °C and -1.3 °C.
The matching figures for L94F: 48.8 °C and 0 °C.
For the variant G18N, the Tm amounted to 49.1 °C and the “change of melting temperature, mutant” value was determined as 0.3 °C.
Taken in the same sequence, the figures for A17C L94C were 56 °C and 7.2 °C.
Taken in the same sequence, the figures for A19K were 51.3 °C and 2.5 °C.
Taken in the same sequence, the figures for E68Q were 49.3 °C and 0.5 °C.
For the variant M32C V83C, the melting temperature (Tm) amounted to 44 °C and the “change of melting temperature, mutant” value is -4.8 °C.
Consider A48C K126C, for which the melting temperature (Tm) came out at 53 °C and the “change of melting temperature, mutant” value stood at 4.2 °C.
The matching figures for A41R: 48.8 °C and 0 °C.
For A41S, the melting temperature (Tm) was determined as 49.1 °C and the “change of melting temperature, mutant” value worked out at 0.3 °C.
In the case of Y112C A142C, the Tm was found to be 56 °C and the “change of melting temperature, mutant” value worked out at 7.2 °C.
Y62W: the Tm stood at 48.8 °C and the “change of melting temperature, mutant” value stood at 0 °C.
Taken in the same sequence, the figures for E45R were 47.8 °C and -1 °C.
The matching figures for E45K: 50.8 °C and 2 °C.
Taken in the same sequence, the figures for D65E were 49.3 °C and 0.5 °C.
Turning to L106R, the Tm is 46.5 °C and the “change of melting temperature, mutant” value is -2.3 °C.
For the variant S111K, the Tm was 46.5 °C and the “change of melting temperature, mutant” value was -2.3 °C.
Taken in the same sequence, the figures for S111R were 48.8 °C and 0 °C.
For the variant A16R, the midpoint of thermal melting (Tm) is 48.3 °C and the “change of melting temperature, mutant” value is -0.5 °C.
Regarding A20P, the Tm was determined as 46.7 °C and the “change of melting temperature, mutant” value was -2.1 °C.
Taken in the same sequence, the figures for S15K were 48.5 °C and -0.3 °C.
For S15P, the melting temperature (Tm) came to 49 °C and the “change of melting temperature, mutant” value was found to be 0.2 °C.
As for A17C N92C, the Tm is 64 °C and the “change of melting temperature, mutant” value is 15.2 °C.
In the case of Q121V, the Tm was found to be 38.8 °C and the “change of melting temperature, mutant” value is -10 °C.
On to K42R, for which the Tm turned out to be 47.5 °C and the “change of melting temperature, mutant” value was -1.3 °C.
Taken in the same sequence, the figures for D24R were 45 °C and -3.8 °C.
Taken in the same sequence, the figures for V102C were 62 °C and 13.2 °C.
The matching figures for A142R: 46 °C and -2.8 °C.
For the variant Y96F, the Tm was determined as 51.6 °C and the “change of melting temperature, mutant” value came to 2.8 °C.

The values above are taken from FireProtDB (doi:10.1093/protein/gzt061).
